Assay: yeast display, Sf9 membrane polyspecificity reagent, FACS + sequencing; frameworks hold sequencing errors
Outline: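 Sorting gates, low and high (top ~1%), were placed on anti-HA fluorescence to track expression and on streptavidin fluorescence to track reagent binding. A clone's polyreactivity label is taken from the gate it came out of. The reagent was 10% biotinylated, detergent-solubilized Sf9 membrane, applied for 1 hour at 4 °C to galactose-induced yeast display cells.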

## QVQLVESGGGLVQAGGSLRLSCAASGGTFRAYVMGWYRQAPGKERELVAAISRRGGSTYYADSVKGRFTISRDNAKNTVYLQMNSLKPEDTAVYYCNAPRLLLSYTPGLDRWPYGVYWGQGTQVTVSS
  polyreactivity (PSR sort gate): high polyreactivity

## QVQLVESGGGLVQAGGSLRLSCAASGRTFTRYAMGWYRQAPGKERELVAAISVRAGITYYADSVKGRFTISRDNAKNTVYLQMNSLKPEDTAVYYCAAKDGRSYYDRTPMVYFGQGTQVTVSS
  polyreactivity (PSR sort gate): low polyreactivity

## QVQLVESGGGLVQAGGSLRLSCAASGRILPYYAMGWYRQAPGKERELVAAITSGGSTYYADSVKGRFTISRDNAKNTVYLQMNSLKPEDTAVYYCATDVDKSLYDYWGQGTQVTVSS
  polyreactivity (PSR sort gate): low polyreactivity

## QVQIVESGGGLVQAGGSLRLSCAASGSIFRKNAMGWYRQAPGKERELVAAITRRGGSTYYADSVKARFTISRDNAKNTVYLQMNSLKPEDTAVYYCAATGGAPYKIEWGQGTQVTVSS
  polyreactivity (PSR sort gate): low polyreactivity

## QVQLVESGGGLVQAGGSLRLSCAASGSIFGRYGMVCYRQAPGKERQLVAAITSGTGTNYADSVKGRFTISRDNALNTVYLQMNSLKPEDTAVYYCNALRLRGNYEYGYWGQGTQVTLSS
  polyreactivity (PSR sort gate): low polyreactivity

## QVQLVESAGGLVQAGGSLRLSCAASGGIFDRYAMGWYRQAPGKERELVAAITSGGSTNYADSVKGRFTISRDNAKNTVYLQMNSLKPEDTAVYYCNADLGILSGVDEGPTFREYDYWGQGTQVTLSS
  polyreactivity (PSR sort gate): low polyreactivity

## QVQLVESGGGLVQAGGSLRLSCAASGRIFPTYAMGWYRQAPGKERELVATITRRGGSTYYADSVKGRFTISRDNAKNTVYLQMNSLKPEDTAVYYCAARLWGTIRYDYWGQGTQVTVSS
  polyreactivity (PSR sort gate): high polyreactivity

## QVQLVESGGGLVQAGGSLRLSCAASGITFEVNAMGWYRQAPGKERELVAAISRSAGSTYYADSVKGRFTISRDNAKNTVYLQMISLKPEDTAVYYCATALRYARSRNRFYYWGQGTQVSVSS
  polyreactivity (PSR sort gate): high polyreactivity

## QVQLVESGGGLVQAGGSLRLSCAASGFTFAYYAMGWYRQAPGKEWELVAAISRGGTSTYYADSVKGRFTISRDKAKNTVYLQMNTLKPEDTAVNYCNAGKVGYSLYDYCGQGTQVTVSS
  polyreactivity (PSR sort gate): high polyreactivity

## QVQLVESGGGLVQAGASLRLSCAASGNTFIHNAMGRYRQAPGKERELVAAINWSGGRTYYADSVKGRFTISRDNAKNTVYLQMNCLKPEDTAVYYCARGTRWTYNMYYWGQGTQVTVSS
  polyreactivity (PSR sort gate): high polyreactivity

## HVQLVESGGGLVQAGGSLRLSCAASGFTFDYNTMGWSRQAPGKEREVVAGISRGGGSTYYADSVKGRFTISRDNAKNTVYLQMNSLKPEDTAVYYCNTVLKRQRKNEYWGQGTQVTVSS
  polyreactivity (PSR sort gate): high polyreactivity

## QVQLVESGGGLVQAGGSLRLSCAASGLTFKSYTMGWYRQAPGKERELVATISGSGTRTYYADSVKGRFTISRDNAKNTVYLQMNSLKPEDTAVYYCARVIWYNNYFRYSGYRSDYWGQGTQVTVSS
  polyreactivity (PSR sort gate): high polyreactivity

## QVQLVESGGGLVQAGGSLRLSCAASGYIPYCYAMGWYRQAPGKERELVAAISSGGNTYYADSVKGRFTISRDNAKNTVYLQMNSLKPEDTAVYYCAAEFRNYIFHYKYNYWGQGTQVTVSS
  polyreactivity (PSR sort gate): high polyreactivity

## QDQLEESGGGLVHAGGSLRLSCAASGRIFLTNAMGWYRQAPGKERELVAAITSGGSTYYADSVKGRFTISRDNEMNTVYLQMNSLNPEDTAVYYCNAYVTSGYANEYYWGQGSQVTVSS
  polyreactivity (PSR sort gate): low polyreactivity

## QVQLVESGGGLVQAGGSLRLSCAASGRTFNTNAMGWYRQAPGKERELVAAISRRSGSTYYADSVKGRFTISRDNAKNTVYLQMNSLKPEDTGVYYCARTAVRKYPYEYWGQGPQVTVSS
  polyreactivity (PSR sort gate): high polyreactivity

## QVQLEDSGGGLVQAGGSLRLSSAASGIIFYPNAMGWYRQSPGKERELVAAITSDGSTYYADSVKGRFTISRDNAKNTVYLQMNSLKPEDTAVYYCDDWDDYGYDYWGQGTQVTVSS
  polyreactivity (PSR sort gate): low polyreactivity

## QVQLVESGGGLVQAGGSLRLSCAASGRIFRRYVMGWYRQAPGKERELVARIRIRDSNTYYADSVKGRCTISRDNAKNTVYLQMNSLKPEDTAVYYCAVVANYVYSKYDYWGQGTQVTVSS
  polyreactivity (PSR sort gate): low polyreactivity

## QVQLVESGGGLVQAGGSLRLSCAASGFTFQYYPMGWYRQAPGKERELVAAISWSGGSTNYADSVKGRFTISRDNAKNTVYLQMNSLKPEDTAVYYCNAVHYYVEYDYWGQGTQVTVSS
  polyreactivity (PSR sort gate): high polyreactivity

## QVQLVESGGGLVQAGGSLRLSCAASGRIFTTYAMGWYRQAPGKERELVAAISRSGGSTYYADSVKGRFTISRDNAKNTVYLQMNSLKPEDTAVYYCAARRRQEHVGRSSYARYDYWGQGTQVTVSS
  polyreactivity (PSR sort gate): high polyreactivity

## QVQLVESGGGLVQAGGSLRLSCAASGRTSLRYAMGWYRQAPGKERELVAAITSSGATTYYADSVKGRFTISRDNAKNTVYLQMNSLKPEDTAVYYCAAVYSAKRGSGGFGYWGQGTQVTVSS
  polyreactivity (PSR sort gate): high polyreactivity

## QVQLVESGGGLVQAGGSLPLSCAASGFNFRSYAMGWYRQAPGTERELVAAISSGGSTYYADSVKGRFTISRDNAKNTVYLQMNSLKPEDTAVYYCGASRYYGYGHWGQGTQVTVSS
  polyreactivity (PSR sort gate): high polyreactivity

## QVQLVESGGGLVQAGGSLRLSCAASGSIFIIYAMGWYRQAPGKERELVASITGRGDSTYYADSVKGRFTISRDNAKNTVYLQMNSLKPEDTAVYYCNAGVYVYRVPGKGYYWGQGTQVTVSS
  polyreactivity (PSR sort gate): low polyreactivity

## QVQLVESGGGLVQAGGSLRLSCAASGFILRYYAMGWYRQAPGKERELVAAISSGGGTYYADSVKGRFTISRDNAKNTVYLQMNSLKPEDTAVYYCAADYWGLWHWLYTDDDGDYWGQGTQVTVSS
  polyreactivity (PSR sort gate): high polyreactivity

## QVQLVESGGGLVQAGGSLRLSCAASGSTFYYNSMGWYRQAPGKERELVARISRSGGSTYADSVKGRFTISRDNAKNTVYLQMNSLKPEDTAVYYCAKDYAPSATKLHYWGQGTQVTVSS
  polyreactivity (PSR sort gate): low polyreactivity

## QVQLVESGGGLVQAGGSLRLSCAASGFTLRGNAMGWYRQAPGKESELVAAISTGGSTYNADSVKGRFTISRDNAKITVYLQMNSLNPEDTAVYYCARRGWFHYRYYYWGQGSQVTVSS
  polyreactivity (PSR sort gate): high polyreactivity

## QVQLVESGGGLFQAGGSLRLSCAASGRIYRFYAMGWYRQAPGKERELVAAISASGGSTYYADSVKGRFTSSRDNAKNTVYLQMISLKPEVTAVYYCAAYSWGGGYYWGQGTQVTVSS
  polyreactivity (PSR sort gate): high polyreactivity

## QVQLVESGGGLVQAGGSLRLSCAASGSILSYNTMGWYRQAPGKEREFVAGITYSGSRTYYADSVKGRFTISRDNAKNPVYLQMNSLKPEDTAVYYCAAQYWQGDYDYWGQGTQVTVSS
  polyreactivity (PSR sort gate): high polyreactivity

## QVQLVESGGGLVQAGGSLRLSCAASGITFVAYAMGWYRQAPGKERELVAAISGGGGSTYYADSVKGRFTISRDNAKNTVYLQMNSLKPEDTAVYYCAGVYTYPLGYYHYTYDYWGQGTQVTVSS
  polyreactivity (PSR sort gate): low polyreactivity

## QVQLVESGGGLVQAGVSLRLSCAASGLTFSKYAMGWYREAPGNERDLVAAITRGDRTYYADSVKGRFTISRDNAKNTVYLHMNSLKPADTAVYYCAARQYYWGQGTQVTVSS
  polyreactivity (PSR sort gate): high polyreactivity

## QVQIVESGGGLVQAGGSLRLSCAASGRIIRINAMGWSRQAPGKERELVAAITRGGTTYADSVKGRFTISRDNAKNTVYLQMNSLKPEDTAVYYCNARTGRSPTGFRYWGQGTQVTVSS
  polyreactivity (PSR sort gate): high polyreactivity

## QVQLVESGGGLVQAGGSLRLSCAASGFTFDENAMGWYRQAPGINYSGASTYYADSVKGRFTISRDNAKNTVYLQMNSVKPEDTAVYYCAAEVVAQMNYCGQGTQVTVSS
  polyreactivity (PSR sort gate): low polyreactivity

## QVQLVESGGGLVQAGGSLRLSCAASGSTFINYAMGWYRQAPGKERELVAAYADSVKGRFTISRDNAKNTVYLQMNSLKPEDTAVYYCAARYVYPHQWTPYIRPYDYWGQGTQVTVSS
  polyreactivity (PSR sort gate): low polyreactivity

## QVQLVESGGGLVQAGGSLRLSCAASGITFYYYAMGWYRQAPGKERELVAAINWSGTSTYYADSVKGRFTISRDNAKNTVYLQMNSLKPEDTAVYYCNAERGRSFWWAYDYWGQGTQVTVSS
  polyreactivity (PSR sort gate): low polyreactivity

## QVQLVESGGGLVQAGGSLRLTCAASGRTFRTYAMGWYRQAPGKERELVAAITSGGNTYYADSVKGRFTISRDNAKNTVYLQMNSLKPEDTAVYYCAAVQYFKVSYWGQGTQVTVSS
  polyreactivity (PSR sort gate): high polyreactivity

## QVQLVESGGGLVHAGGSLRLSCASSGSIFYYYAMGWYRQAPGKERELVASITSSGGTTSYADSVKGRYTISRDNAKNTVYLLMNSLKPEDTAVYYCNAQVYRYRIGYDYWGQCTQVTVSS
  polyreactivity (PSR sort gate): low polyreactivity

## QVQLEESGGGLVQAGGSLRLSCAASGYTFGLYAMGWYRQAPRKERELVAAISSDASTNYADSVKGRFTISRDNAKNTVYLQMNSLKPEDTAVYYCAAAVKRGYAQSFISDGYGYWGQGTQVTVSS
  polyreactivity (PSR sort gate): low polyreactivity

## QVQLVESGGGLVQSGGSLRLSCAASGSIFDGYAMGWYRQAPGKERELVAAISKGGTRTYYADSVKGRFTISRDNAKNTVYLQMNSLKPEDTAVYYGNAYFRREPDDGDYDYWGQGTQVTVSS
  polyreactivity (PSR sort gate): high polyreactivity

## QVQLVESGGGLVQAGGSLGLSCAASGFTFGHYAMGWYRPAPGKERELVAAISIDGGRTYYADSVKGRFTISRDNAKKTVYLQMNSLKPEDTAVYYCAVPGWVYYTSDYDYWGQGTQVTVSS
  polyreactivity (PSR sort gate): high polyreactivity

## QVQLVESGGGLVQAGGSLRLSCAASGFIFYLYAMGWYRPAPGKERELVAAISRRGGSTYYADSVKGRFTISRDNAKNTVYLQMNSLKPEDTAVYYCAAYGDDGRDYWGQGTQVTVSS
  polyreactivity (PSR sort gate): high polyreactivity

## QVQLVEAGGRLVQAGGSLRLSCAASGGTFGTNNMGWYRQAPGKEMEVVAAISKRGGRTYYADSVKGRFTISRDNAKNTVYLQMNSLKPEDTAVYYCAADTGGNPKYDYWGQGTQVTVSS
  polyreactivity (PSR sort gate): high polyreactivity

## QVQLVESGGGLVQAGGRLRLSCAASGLTFDGYAMGWYRQAPGKERELVAAISWSGNTYYADSVKGRFKISRDNAKNTVYLQMNSLKPEDTAVYYCAVKYYHYGSWGQGTQVTVSS
  polyreactivity (PSR sort gate): high polyreactivity

## QVQLVETAGGLVQAGASLRLSSAASGITFAYYAMGWYRQAPAKERELVAAISSSGGSTYYADSVKGRFTISRDNAKNTVYLQLNSLNPEDTAVYYCAVDYSYWVEYWGLGTQVTVSS
  polyreactivity (PSR sort gate): high polyreactivity

## QVQLVESGGGLVQAGGSLRLSCAASGSTFYVYVMGWYRQAPGKERELVAVIDWRGGSTYYADSVKGRFTISRDNAKNTVYLQMNSLKPEDTAVYYCNKDAQFYYKLPYYKERDWGQGTQVTVSS
  polyreactivity (PSR sort gate): low polyreactivity
